These results are taken from PMC6706699 (Developmental Cell, 2019).

In experiment [1] the target is NECAP1 PHear domain, 1-133 (UniProt Q8NC96). Nature of the experiment: ITC. To be noted: reference: unphosphorylated peptide …; sites T156.
Experiment [2] addresses μ2T156-phosphorylated AP2, endogenous in RPE cells (human (endogenous in RPE)) (UniProt O95782). Kind of experiment: co-IP; native co-immunoprecipitation with anti-AP2α antibody AP6 on protein G-Sepharose from RPE cell lysates (0.1% NP40), overnight at 4°C; western blot. In general terms: In western blotting, separated proteins are transferred to a membrane and probed.
Experiment [3] deals with TGN38 cytoplasmic domain peptide, lipid-linked, in PtdIns4,5P2 liposomes. Kind of experiment: SPR; BIAcore T200, liposomes (PC/PE with 4% PtdIns4,5P2 and 2% lipid-linked peptide) on an L1 sensor; core or Pcore injected at 50 nM to 50 μM; 10 mM Tris pH 8.7, 250 mM NaCl, 1 mM DTT; apparent constants from fast and slow dissociation amplitudes. A general note: Surface plasmon resonance follows binding to a sensor surface in real time, without labels.

In experiment [4] the target is Recombinant T156-phosphorylated AP2 core (UniProt P18484). Kind of experiment: ITC; Nano ITC, 10°C, 100 mM TRIS pH 8, 250 mM NaCl, 0.25 mM TCEP; 0.05-0.1 mM Pcore in the cell, 2-3 mM PHear titrated in. On the technique in general: ITC needs no label: the signal is the heat of the interaction.
Experiment [5] deals with T1, NECAP1 PHear (1-133) R102A (UniProt Q8NC96 1-133, R102A).
T1 sequence: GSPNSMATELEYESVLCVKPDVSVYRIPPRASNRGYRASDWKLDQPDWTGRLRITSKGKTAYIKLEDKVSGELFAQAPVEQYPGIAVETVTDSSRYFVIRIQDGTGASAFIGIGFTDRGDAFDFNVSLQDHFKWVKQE
Kind of experiment: ITC.

Experiment [6] addresses T2, NECAP1 PHear (1-133) S88A (UniProt Q8NC96 1-133, S88A).
T2 sequence: T1 sequence with S93A, A107R
Nature of the experiment: ITC.

Experiment [7] deals with T3, NECAP1 PHear (1-133) R32D (UniProt Q8NC96 1-133, R32D).
T3 sequence: T1 sequence with R37D, A107R
Nature of the experiment: ITC.

Experiment [8] has as its target T4, NECAP1 PHear domain (NECAP 1-133), wild type (UniProt Q8NC96 1-133).
T4 chain: T1 sequence with A107R
Nature of the experiment: ITC; + FxDxF peptide.

Experiment [9] addresses NECAP1 PHear domain (NECAP 1-133), wild type (UniProt Q8NC96). Kind of experiment: ITC; Nano ITC, 12°C, 75 mM HEPES pH 7.4, 0.25 mM TCEP; PHear domains in the cell, peptides at 1-5 mM titrated in.
For experiment [10], the target named is T5, NECAP1 PHear (1-133) S88A (UniProt Q8NC96 1-133, S88A).
T5 construct: NECAP1 PHear domain, residues 1-133; source: E. coli BL21DE3 pLysS, purified (GST sepharose, thrombin cleavage, gel filtration); not shown: GST, N-terminal, cleaved
T5 sequence: T1 sequence with S93A, A107R
Described as above. To be noted: both partners purified.

Experiment [11] concerns the target T6, NECAP1 PHear (1-133) R32D (UniProt Q8NC96 1-133, R32D).
T6 construct: NECAP1 PHear domain, residues 1-133; Not in the plasmid list; source: E. coli BL21DE3 pLysS, purified (GST sepharose, thrombin cleavage, gel filtration); not shown: GST, N-terminal, cleaved
T6 sequence: T1 sequence with R37D, A107R
The description is as above. To be noted: both partners purified.

Experiment [12] has as its target T7, NECAP1 PHear (1-133) R102A (UniProt Q8NC96 1-133, R102A).
T7 construct: NECAP1 PHear domain, residues 1-133; source: E. coli BL21DE3 pLysS, purified (GST sepharose, thrombin cleavage, gel filtration); not shown: GST, N-terminal, cleaved
T7 sequence: T1 sequence
The experiment is described as above. To be noted: both partners purified.

Positions count from the first letter of the chain named. Square brackets hold non-standard residues; d marks the D form. Ends that are not written are not given here. pT = C[C@@H](OP(=O)(O)O)[C@H](N)C(=O)O Some results are limits rather than exact numbers.

μ2T156-phosphorylated AP2, endogenous in RPE cells (human (endogenous in RPE)), sequence (O95782 whole entry, chain 1 of 4, the tested form may be a part): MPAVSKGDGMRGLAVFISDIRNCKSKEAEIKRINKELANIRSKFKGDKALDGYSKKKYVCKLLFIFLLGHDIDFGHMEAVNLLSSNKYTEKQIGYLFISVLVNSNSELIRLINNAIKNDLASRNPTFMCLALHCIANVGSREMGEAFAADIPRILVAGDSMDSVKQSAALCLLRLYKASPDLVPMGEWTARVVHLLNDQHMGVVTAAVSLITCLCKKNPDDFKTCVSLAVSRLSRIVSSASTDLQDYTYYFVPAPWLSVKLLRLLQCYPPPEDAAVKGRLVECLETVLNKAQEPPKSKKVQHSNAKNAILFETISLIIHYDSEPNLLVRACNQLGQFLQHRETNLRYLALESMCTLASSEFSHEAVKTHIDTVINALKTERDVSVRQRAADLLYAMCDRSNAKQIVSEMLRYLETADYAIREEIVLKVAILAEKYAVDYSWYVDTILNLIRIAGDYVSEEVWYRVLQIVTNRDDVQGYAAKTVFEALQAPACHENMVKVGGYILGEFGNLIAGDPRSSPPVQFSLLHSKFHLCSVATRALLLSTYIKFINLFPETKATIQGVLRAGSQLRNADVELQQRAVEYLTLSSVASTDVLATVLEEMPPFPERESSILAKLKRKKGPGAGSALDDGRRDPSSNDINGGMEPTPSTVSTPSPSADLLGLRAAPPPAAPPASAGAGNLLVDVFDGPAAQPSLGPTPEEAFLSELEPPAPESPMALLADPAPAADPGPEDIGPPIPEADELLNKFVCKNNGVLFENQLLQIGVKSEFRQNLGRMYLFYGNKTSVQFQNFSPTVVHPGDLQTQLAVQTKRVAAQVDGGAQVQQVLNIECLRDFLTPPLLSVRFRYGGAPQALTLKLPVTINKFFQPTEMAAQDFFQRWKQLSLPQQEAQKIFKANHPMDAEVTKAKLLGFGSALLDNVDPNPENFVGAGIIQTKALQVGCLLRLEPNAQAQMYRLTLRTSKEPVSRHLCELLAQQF
μ2T156-phosphorylated AP2, endogenous in RPE cells (human (endogenous in RPE)), sequence (P63010 whole entry, chain 2 of 4, further chain, the tested form may be a part): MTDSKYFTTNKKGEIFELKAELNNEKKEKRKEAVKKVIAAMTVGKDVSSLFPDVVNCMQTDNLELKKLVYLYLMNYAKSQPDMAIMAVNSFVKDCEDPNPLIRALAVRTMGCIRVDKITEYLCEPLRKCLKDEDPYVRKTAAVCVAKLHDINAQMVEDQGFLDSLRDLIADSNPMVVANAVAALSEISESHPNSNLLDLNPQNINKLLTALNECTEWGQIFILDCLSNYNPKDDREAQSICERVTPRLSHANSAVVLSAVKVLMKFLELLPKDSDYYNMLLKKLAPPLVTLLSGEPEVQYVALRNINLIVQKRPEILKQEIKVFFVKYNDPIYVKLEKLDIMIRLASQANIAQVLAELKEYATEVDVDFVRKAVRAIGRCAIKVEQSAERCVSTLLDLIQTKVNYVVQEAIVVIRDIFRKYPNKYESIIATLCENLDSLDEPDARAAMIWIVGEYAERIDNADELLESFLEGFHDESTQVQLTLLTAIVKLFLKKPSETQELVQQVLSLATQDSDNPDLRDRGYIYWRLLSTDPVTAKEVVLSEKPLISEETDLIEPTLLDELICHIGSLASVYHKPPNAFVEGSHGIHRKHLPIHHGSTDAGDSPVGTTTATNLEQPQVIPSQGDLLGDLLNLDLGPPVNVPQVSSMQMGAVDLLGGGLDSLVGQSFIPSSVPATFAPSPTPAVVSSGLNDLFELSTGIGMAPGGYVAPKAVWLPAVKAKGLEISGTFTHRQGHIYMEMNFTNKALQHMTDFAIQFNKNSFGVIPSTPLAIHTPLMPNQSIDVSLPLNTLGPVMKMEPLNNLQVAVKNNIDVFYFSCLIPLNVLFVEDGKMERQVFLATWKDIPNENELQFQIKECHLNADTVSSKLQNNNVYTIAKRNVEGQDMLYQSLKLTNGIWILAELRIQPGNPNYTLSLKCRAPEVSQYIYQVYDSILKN
μ2T156-phosphorylated AP2, endogenous in RPE cells (human (endogenous in RPE)), sequence (Q96CW1 whole entry, chain 3 of 4, further chain, the tested form may be a part): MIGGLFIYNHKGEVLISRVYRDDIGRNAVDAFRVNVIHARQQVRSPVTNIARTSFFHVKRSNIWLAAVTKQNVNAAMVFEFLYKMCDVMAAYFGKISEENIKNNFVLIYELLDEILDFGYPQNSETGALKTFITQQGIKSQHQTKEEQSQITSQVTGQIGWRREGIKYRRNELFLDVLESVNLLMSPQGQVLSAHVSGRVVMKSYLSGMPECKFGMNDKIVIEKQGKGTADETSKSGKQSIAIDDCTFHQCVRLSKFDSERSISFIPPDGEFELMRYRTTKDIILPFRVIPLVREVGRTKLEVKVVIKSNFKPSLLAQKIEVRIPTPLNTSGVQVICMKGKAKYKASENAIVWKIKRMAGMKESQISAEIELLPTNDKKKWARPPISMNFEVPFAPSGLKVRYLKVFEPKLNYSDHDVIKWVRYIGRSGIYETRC
μ2T156-phosphorylated AP2, endogenous in RPE cells (human (endogenous in RPE)), sequence (P53680 whole entry, chain 4 of 4, further chain, the tested form may be a part): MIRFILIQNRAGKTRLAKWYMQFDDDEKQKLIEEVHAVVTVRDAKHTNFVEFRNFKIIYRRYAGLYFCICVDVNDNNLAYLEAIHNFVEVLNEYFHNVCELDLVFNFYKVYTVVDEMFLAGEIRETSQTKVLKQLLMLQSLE
Recombinant T156-phosphorylated AP2 core (UniProt P18484), sequence (P18484 whole entry, chain 1 of 4): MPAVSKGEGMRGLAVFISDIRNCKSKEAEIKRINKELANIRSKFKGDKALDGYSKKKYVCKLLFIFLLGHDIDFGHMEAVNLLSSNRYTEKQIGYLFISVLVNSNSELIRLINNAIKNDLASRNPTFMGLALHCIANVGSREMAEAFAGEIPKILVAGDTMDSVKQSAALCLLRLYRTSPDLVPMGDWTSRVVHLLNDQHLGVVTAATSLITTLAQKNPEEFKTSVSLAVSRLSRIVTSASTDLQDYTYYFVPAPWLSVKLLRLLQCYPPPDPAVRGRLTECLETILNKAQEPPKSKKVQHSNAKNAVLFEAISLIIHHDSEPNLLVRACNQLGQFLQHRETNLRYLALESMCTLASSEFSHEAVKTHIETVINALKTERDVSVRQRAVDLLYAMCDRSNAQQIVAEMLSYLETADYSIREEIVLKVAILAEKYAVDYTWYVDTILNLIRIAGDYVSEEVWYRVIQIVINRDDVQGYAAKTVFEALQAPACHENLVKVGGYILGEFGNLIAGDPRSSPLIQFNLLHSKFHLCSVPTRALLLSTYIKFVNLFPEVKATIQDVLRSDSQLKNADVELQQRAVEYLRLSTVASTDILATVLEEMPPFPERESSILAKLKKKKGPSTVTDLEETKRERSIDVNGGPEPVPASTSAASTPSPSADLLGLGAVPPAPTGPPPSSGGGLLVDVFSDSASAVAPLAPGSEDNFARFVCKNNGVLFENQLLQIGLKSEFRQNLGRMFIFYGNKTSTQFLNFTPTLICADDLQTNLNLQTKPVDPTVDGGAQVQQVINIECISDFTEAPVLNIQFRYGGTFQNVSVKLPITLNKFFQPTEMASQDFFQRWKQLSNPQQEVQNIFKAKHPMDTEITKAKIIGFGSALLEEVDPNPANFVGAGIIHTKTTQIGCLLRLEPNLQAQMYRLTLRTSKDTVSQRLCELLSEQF
Recombinant T156-phosphorylated AP2 core (UniProt P18484), sequence (P63010 1-592, chain 2 of 4, further chain): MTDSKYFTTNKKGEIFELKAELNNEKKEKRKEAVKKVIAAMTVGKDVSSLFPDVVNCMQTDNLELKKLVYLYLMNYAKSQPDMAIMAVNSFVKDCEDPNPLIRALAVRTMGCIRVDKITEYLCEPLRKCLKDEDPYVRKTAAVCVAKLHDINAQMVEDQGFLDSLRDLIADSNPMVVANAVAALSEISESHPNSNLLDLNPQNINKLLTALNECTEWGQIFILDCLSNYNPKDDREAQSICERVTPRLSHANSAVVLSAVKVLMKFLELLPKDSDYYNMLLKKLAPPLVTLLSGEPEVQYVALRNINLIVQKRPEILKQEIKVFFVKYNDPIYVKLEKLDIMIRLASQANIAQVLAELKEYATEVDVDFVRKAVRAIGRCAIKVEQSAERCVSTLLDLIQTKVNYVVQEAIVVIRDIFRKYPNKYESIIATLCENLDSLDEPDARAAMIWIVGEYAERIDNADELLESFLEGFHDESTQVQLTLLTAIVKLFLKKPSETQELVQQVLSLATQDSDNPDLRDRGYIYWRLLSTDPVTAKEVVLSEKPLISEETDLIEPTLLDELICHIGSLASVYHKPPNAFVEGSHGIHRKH
Recombinant T156-phosphorylated AP2 core (UniProt P18484), sequence (P84092 whole entry, chain 3 of 4, further chain): as the sequence (Q96CW1 whole entry, chain 3 of 4, further chain, the tested form may be a part) above
Recombinant T156-phosphorylated AP2 core (UniProt P18484), sequence (P62743 whole entry, chain 4 of 4, further chain): as the sequence (P53680 whole entry, chain 4 of 4, further chain, the tested form may be a part) above

Turning to “AP2 μ2 subunit (recombinant AP2 core / Pcore, GST-μ2 linkers, μ2 linker peptides) μ2 linker, 149-163 (from UniProt P84092) pT156 peptide”, in [1], the KD entry is given as “gained; reference no binding detected”.

“mRuby2-Flag-GGGS-NECAP1 R90A (from UniProt Q8NC96-1 1-275) (natural protein)”: the percent reduction in binding against NECAP1-mRuby2 WT in [2] amounted to 60%.

Turning to “Recombinant T156-phosphorylated AP2 core (from UniProt P18484 1-938; P63010 1-592; P84092 1-435; P62743 1-142) (complex)”, the fold increase in liposome-binding affinity against the unphosphorylated core in experiment [3] stood at 3 fold.

Regarding “NECAP1 PHear domain (NECAP 1-133), wild type (from UniProt Q8NC96 1-133) (domain or fragment)”, the Kd (commonly the constant that tells how readily two partners part at equilibrium) in [4] came out at 8 µM.

B1: T156-phosphorylated μ2 linker peptide (residues 149–163) (peptide)
peptide: SQITSQV[pT]GQIGWRR
notes: also called Peptide μ2linker Phos; phosphorylated μ2 peptide; source: synthetic peptide (Genscript)
Regarding B1, the equilibrium dissociation constant (Kd) in experiment [5] is 57 µM; in [6], above 300 µM; in experiment [7], 126 µM; in experiment [8], 44.9 µM; in experiment [9], 55 µM. For the same molecule, the binding result in [10], in [11] and in [12] was “binds” each time.
